The results in this text go back to publication doi:10.1101/2021.11.02.466974 (bioRxiv, 2021).

One series concerns the target M1-linked diUb (UniProt P0CG48). The series can be described thus: ITC. (In general: ITC needs no label: the signal is the heat of the interaction.)
The target of the next series is monoUb (UniProt P0CG48 1-76). Nature of the series: ITC.
The series “SEC” concerns the molecule itself. Nature of the series: SEC.
Series [1] concerns the molecule itself. Nature of the series: Western blot of lysate under non-denaturing conditions. In general terms: A western blot detects proteins with antibodies after separation by electrophoresis.

B1: isolated N4BP1 CUE domain (residues 850-893) used for ITC, NMR and analytical gel filtration (domain or fragment)
chain: ETSELREALLKIFPDSEQKLKIDQILAAHPYMKDLNALSALVLD
As to B1, the binding result with M1-linked diUb, with monoUb and in “SEC” was “binds” throughout.

B2: mouse N4BP1 (613-893) in cell lysate (dimerization test of Fig. 2B) (domain or fragment)
chain: ADLKHIVIDGSNVAITHGLKKFFSCRGIAIAVEYFWKLGNRNITVFVPQWRTRRDPNITEQHFLTQLQELGILSLTPARMVFGERIASHDDRFLLHLADKTGGIIVTNDNFREFVTESVSWREIITKRLLQYTFVGDIFMVPDDPLGRNGPRLEEFLRKEAFLRHMQPLLNALPSVGTFDPGFRSPSTQVANNSHQPPPRIQTSSSPWLPQQSHFTALATLPSMQQNPPLPAQRSSAETSELREALLKIFPDSEQKLKIDQILAAHPYMKDLNALSALVLD
One may read the stoichiometry N as a count of units in the complex or per binding partner. For the molecule B2, the “stoichiometry N” value in series [1] was found to be 2.
